Experimental data taken from patent US7531643.

Tests used:
[1] = biological target: human Integrin Associated Protein (IAP) (human) (UniProt Q08722); experiment: cell ELISA, CF1-hIAP-55-8 minus CF1-pCOS1, antibody at 3 µg/ml
[2] = biological target: human Integrin Associated Protein (IAP) (human) (UniProt Q08722); experiment: cell ELISA on PLP-fixed CF-1 cells expressing human IAP, antibody at 3 µg/ml
[3] = biological target: human Integrin Associated Protein (IAP) (human) (UniProt Q08722); experiment: cell ELISA, CF1-hIAP-55-8 minus CF1-pCOS1, hybridoma culture supernatant
[4] = biological target: human Integrin Associated Protein (IAP) (human) (UniProt Q08722); experiment: cell ELISA on PLP-fixed CF-1 cells expressing human IAP, hybridoma culture supernatant
[5] = biological target: human Integrin Associated Protein (IAP) (human) (UniProt Q08722); experiment: cell-based or functional assay

Chain of UniProt Q08722 (Q08722 19-323): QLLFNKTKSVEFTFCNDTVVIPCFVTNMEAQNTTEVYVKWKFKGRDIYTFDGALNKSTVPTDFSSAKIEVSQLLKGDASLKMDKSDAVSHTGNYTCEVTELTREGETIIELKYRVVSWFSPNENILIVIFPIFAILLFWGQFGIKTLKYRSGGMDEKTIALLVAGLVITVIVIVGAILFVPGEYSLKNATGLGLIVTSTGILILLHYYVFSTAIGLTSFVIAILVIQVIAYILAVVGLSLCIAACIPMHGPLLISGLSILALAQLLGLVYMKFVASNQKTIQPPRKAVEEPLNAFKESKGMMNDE

Molecule	Specific binding (absorbance, CF1-pCOS1 subtracted) [1] [absorbance]	absorbance in ELISA (raw data, CF1-hIAP-55-8) [2] [absorbance]	Specific binding (absorbance, CF1-pCOS1 subtracted) [3] [absorbance]	absorbance in ELISA (raw data, CF1-hIAP-55-8) [4] [absorbance]	percentage (%) of apoptosis of Jurkat cells, PI staining, flow cytometry (8G2 control supernatant 7.43%) [5] [%]
human IAP-recognizing anti-CD47 antibody (PharMingen)	0.296	0.456			
monoclonal antibody of hybridoma 7D2-E3 (antibody, from another filing, IgG2a) scFv: QVQLQQSGPELVKPGASVKMSCKASGYTFANHVIHWVKQKPGQGLEWIGYIYPYNDGTKYNEKFKDKATLTSDKSSTTAYMDLSSLASEDSAVYYCARGGYYTYDDWGQGTTLTVSSGGGGSGGGGSGGGGSDVVMTQSPLSLPVSLGDQASISCRSSQSLVHSNGKTYLHWYLQKPGQSPKLLIYKVSNRFSGVPDRFSGSGSVTDFTLMISRVEAEDLGVYFCSQSTHVPYTFGGGTKLEIKDYKDDDDK			0.379	0.568	9.84
